First the molecules themselves.
T1: human amylin 3(a) receptor (human calcitonin receptor + RAMP-3) (human, UniProt P30988 25-474; O60896 24-148)
T1 sequence (looked up) 1: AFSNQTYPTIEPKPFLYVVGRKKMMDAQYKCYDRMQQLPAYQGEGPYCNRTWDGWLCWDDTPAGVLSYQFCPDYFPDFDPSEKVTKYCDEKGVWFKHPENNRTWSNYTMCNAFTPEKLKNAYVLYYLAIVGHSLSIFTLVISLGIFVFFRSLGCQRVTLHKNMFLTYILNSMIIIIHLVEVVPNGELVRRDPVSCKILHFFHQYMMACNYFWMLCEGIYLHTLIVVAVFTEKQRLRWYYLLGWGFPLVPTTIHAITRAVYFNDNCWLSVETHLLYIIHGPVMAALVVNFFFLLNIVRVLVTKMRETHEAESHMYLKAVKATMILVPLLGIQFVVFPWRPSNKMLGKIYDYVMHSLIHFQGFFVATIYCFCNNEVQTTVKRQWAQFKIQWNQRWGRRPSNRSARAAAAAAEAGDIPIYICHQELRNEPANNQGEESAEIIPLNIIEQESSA
T1 sequence (looked up) 2: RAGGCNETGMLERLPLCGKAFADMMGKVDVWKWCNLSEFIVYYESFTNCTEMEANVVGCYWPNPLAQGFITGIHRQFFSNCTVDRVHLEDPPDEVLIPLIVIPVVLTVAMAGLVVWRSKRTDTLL

T2: human calcitonin (a) receptor (human, UniProt P30988 25-474)
T2 sequence (looked up): T1 sequence (looked up) 1

T3: rat amylin 3(a) receptor (rat calcitonin(a) receptor + rat RAMP3) (rat, UniProt P32214 25-516; Q9JJ73 23-147)
T3 sequence (looked up) 1: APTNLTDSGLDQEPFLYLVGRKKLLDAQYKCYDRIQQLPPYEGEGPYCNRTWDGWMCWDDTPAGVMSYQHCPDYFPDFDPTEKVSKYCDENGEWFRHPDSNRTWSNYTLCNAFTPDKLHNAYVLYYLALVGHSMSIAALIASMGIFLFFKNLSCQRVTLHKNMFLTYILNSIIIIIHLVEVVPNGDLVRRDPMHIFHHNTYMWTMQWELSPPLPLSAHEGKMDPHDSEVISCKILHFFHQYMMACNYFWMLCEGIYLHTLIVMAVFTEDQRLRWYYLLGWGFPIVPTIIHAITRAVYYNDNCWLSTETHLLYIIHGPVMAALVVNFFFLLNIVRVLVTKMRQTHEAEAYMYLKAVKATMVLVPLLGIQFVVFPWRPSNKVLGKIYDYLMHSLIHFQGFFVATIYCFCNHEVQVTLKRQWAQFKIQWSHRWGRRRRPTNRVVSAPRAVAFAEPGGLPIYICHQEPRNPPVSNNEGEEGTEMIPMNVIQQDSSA
T3 sequence (looked up) 2: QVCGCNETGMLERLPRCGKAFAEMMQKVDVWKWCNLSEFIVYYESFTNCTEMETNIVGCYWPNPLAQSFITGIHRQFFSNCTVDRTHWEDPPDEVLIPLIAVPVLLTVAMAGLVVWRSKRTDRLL

T4: rat calcitonin (a) receptor (rat, UniProt P32214 25-516)
T4 sequence (looked up): T3 sequence (looked up) 1

B1: N-epsilon25-[2-(2-{2-[2-(2-{2-[(S)-4-Carboxy-4-(17-carboxyheptadecanoylamino)butyrylamino]ethoxy}ethoxy)acetylamino]ethoxy}ethoxy)acetyl]-[Glu14,His17,Lys25]-pr … (peptide)
peptide: KCNTATCATQRLAEFLHHSSNNFGK([AEEA-AEEA-γGlu-C18 diacid])ILPPTNVGSNTY-NH2
modifications: disulfide 2-7; N-terminus assumed
SMILES: CC[C@H](C)[C@H](NC(=O)[C@H](CCCCNC(=O)COCCOCCNC(=O)COCCOCCNC(=O)CC[C@H](NC(=O)CCCCCCCCCCCCCCCCC(=O)O)C(=O)O)NC(=O)CNC(=O)[C@H](Cc1ccccc1)NC(=O)[C@H](CC(N)=O)NC(=O)[C@H](CC(N)=O)NC(=O)[C@H](CO)NC(=O)[C@H](CO)NC(=O)[C@H](Cc1c[nH]cn1)NC(=O)[C@H](Cc1c[nH]cn1)NC(=O)[C@H](CC(C)C)NC(=O)[C@H](Cc1ccccc1)NC(=O)[C@H](CCC(=O)O)NC(=O)[C@H](C)NC(=O)[C@H](CC(C)C)NC(=O)[C@H](CCCNC(=N)N)NC(=O)[C@H](CCC(N)=O)NC(=O)[C@@H](NC(=O)[C@H](C)NC(=O)[C@@H]1CSSC[C@H](NC(=O)[C@@H](N)CCCCN)C(=O)N[C@@H](CC(N)=O)C(=O)N[C@@H]([C@@H](C)O)C(=O)N[C@@H](C)C(=O)N[C@@H]([C@@H](C)O)C(=O)N1)[C@@H](C)O)C(=O)N[C@@H](CC(C)C)C(=O)N1CCC[C@H]1C(=O)N1CCC[C@H]1C(=O)N[C@H](C(=O)N[C@@H](CC(N)=O)C(=O)N[C@H](C(=O)NCC(=O)N[C@@H](CO)C(=O)N[C@@H](CC(N)=O)C(=O)N[C@H](C(=O)N[C@@H](Cc1ccc(O)cc1)C(N)=O)[C@@H](C)O)C(C)C)[C@@H](C)O
B2: N-alpha-[(S)-4-Carboxy-4-(19-carboxynonadecanoylamino)butyryl]-[His1,Glu14,His17,Pro37]-pramlintide (peptide)
peptide: {C20 diacid-γGlu}-HCNTATCATQRLAEFLHHSSNNFGPILPPTNVGSNTP-NH2
modifications: disulfide 2-7; not fully specified; printed as N-alpha-[(S)-4-Carboxy-4-(19-carboxynonadecanoylamino)butyryl]-[His1,Glu14,His17,Pro37]-pramlintide
B3: N-epsilon21-[2-(2-{2-[2-(2-{2-[(S)-4-Carboxy-4-(17-carboxyheptadecanoylamino)butyrylamino]ethoxy}ethoxy)acetylamino]ethoxy}ethoxy)acetyl]-[Glu14,His17,Lys21,Glu … (peptide)
peptide: KCNTATCATQRLAEFLHHSSK([AEEA-AEEA-γGlu-C18 diacid])NFGPILPPTNVGSETY-NH2
modifications: disulfide 2-7; N-terminus assumed
SMILES: CC[C@H](C)[C@H](NC(=O)[C@@H]1CCCN1C(=O)CNC(=O)[C@H](Cc1ccccc1)NC(=O)[C@H](CC(N)=O)NC(=O)[C@H](CCCCNC(=O)COCCOCCNC(=O)COCCOCCNC(=O)CC[C@H](NC(=O)CCCCCCCCCCCCCCCCC(=O)O)C(=O)O)NC(=O)[C@H](CO)NC(=O)[C@H](CO)NC(=O)[C@H](Cc1c[nH]cn1)NC(=O)[C@H](Cc1c[nH]cn1)NC(=O)[C@H](CC(C)C)NC(=O)[C@H](Cc1ccccc1)NC(=O)[C@H](CCC(=O)O)NC(=O)[C@H](C)NC(=O)[C@H](CC(C)C)NC(=O)[C@H](CCCNC(=N)N)NC(=O)[C@H](CCC(N)=O)NC(=O)[C@@H](NC(=O)[C@H](C)NC(=O)[C@@H]1CSSC[C@H](NC(=O)[C@@H](N)CCCCN)C(=O)N[C@@H](CC(N)=O)C(=O)N[C@@H]([C@@H](C)O)C(=O)N[C@@H](C)C(=O)N[C@@H]([C@@H](C)O)C(=O)N1)[C@@H](C)O)C(=O)N[C@@H](CC(C)C)C(=O)N1CCC[C@H]1C(=O)N1CCC[C@H]1C(=O)N[C@H](C(=O)N[C@@H](CC(N)=O)C(=O)N[C@H](C(=O)NCC(=O)N[C@@H](CO)C(=O)N[C@@H](CCC(=O)O)C(=O)N[C@H](C(=O)N[C@@H](Cc1ccc(O)cc1)C(N)=O)[C@@H](C)O)C(C)C)[C@@H](C)O
B4: N-alpha-[(S)-4-Carboxy-4-(19-carboxynonadecanoylamino)butyryl]-[His1,Glu14,His17,His35]-pramlintide (peptide)
peptide: {C20 diacid-γGlu}-HCNTATCATQRLAEFLHHSSNNFGPILPPTNVGSHTY-NH2
modifications: disulfide 2-7; not fully specified; printed as N-alpha-[(S)-4-Carboxy-4-(19-carboxynonadecanoylamino)butyryl]-[His1,Glu14,His17,His35]-pramlintide
B5: N-alpha-[(S)-4-Carboxy-4-(19-carboxynonadecanoylamino)butyryl]-His-[Glu14,His17,His35]-pramlintide (peptide)
peptide: {C20 diacid-γGlu}-HKCNTATCATQRLAEFLHHSSNNFGPILPPTNVGSHTY-NH2
modifications: disulfide 3-8
SMILES: CC[C@H](C)[C@H](NC(=O)[C@@H]1CCCN1C(=O)CNC(=O)[C@H](Cc1ccccc1)NC(=O)[C@H](CC(N)=O)NC(=O)[C@H](CC(N)=O)NC(=O)[C@H](CO)NC(=O)[C@H](CO)NC(=O)[C@H](Cc1c[nH]cn1)NC(=O)[C@H](Cc1c[nH]cn1)NC(=O)[C@H](CC(C)C)NC(=O)[C@H](Cc1ccccc1)NC(=O)[C@H](CCC(=O)O)NC(=O)[C@H](C)NC(=O)[C@H](CC(C)C)NC(=O)[C@H](CCCNC(=N)N)NC(=O)[C@H](CCC(N)=O)NC(=O)[C@@H](NC(=O)[C@H](C)NC(=O)[C@@H]1CSSC[C@H](NC(=O)[C@H](CCCCN)NC(=O)[C@H](Cc2c[nH]cn2)NC(=O)CC[C@H](NC(=O)CCCCCCCCCCCCCCCCCCC(=O)O)C(=O)O)C(=O)N[C@@H](CC(N)=O)C(=O)N[C@@H]([C@@H](C)O)C(=O)N[C@@H](C)C(=O)N[C@@H]([C@@H](C)O)C(=O)N1)[C@@H](C)O)C(=O)N[C@@H](CC(C)C)C(=O)N1CCC[C@H]1C(=O)N1CCC[C@H]1C(=O)N[C@H](C(=O)N[C@@H](CC(N)=O)C(=O)N[C@H](C(=O)NCC(=O)N[C@@H](CO)C(=O)N[C@@H](Cc1c[nH]cn1)C(=O)N[C@H](C(=O)N[C@@H](Cc1ccc(O)cc1)C(N)=O)[C@@H](C)O)C(C)C)[C@@H](C)O

Starred links: 1 amine or outer side, 2 acyl side, 3 side chain; linkers in the order of their positions; H or OH if unused. Positions of bridges follow the written chain, without caps; N, C: chain ends. Groups on a side chain read outwards from the residue. No end group written: not given here. *: point of attachment. C20 diacid = O=C(O)CCCCCCCCCCCCCCCCCCC(=O)*; C18 diacid = O=C(O)CCCCCCCCCCCCCCCCC(=O)*; γGlu = O=C(O)[C@H](CCC(=O)[*:2])N[*:1]; AEEA = NCCOCCOCC(=O)O

In the first assay the target is T1, human amylin 3(a) receptor (human …). In words: cell-based or functional assay.
With B1, the “Amylin receptor human EC50” value was determined as 0.0385 nM.

B2: the “Amylin receptor human EC50” value worked out at 0.0925 nM.

B3: the “Amylin receptor human EC50” value was found to be 0.184 nM.

Turning to B4, the “Amylin receptor human EC50” value came to 0.121 nM.

As for B5, the “Amylin receptor human EC50” value was 0.182 nM.

The next assay addresses T2, human calcitonin (a) receptor. The experiment in a line: cell-based or functional assay.
As for B1, the “CTa receptor human EC50” value is 0.045 nM.

On to B2, for which the “CTa receptor human EC50” value was found to be 0.067 nM.

In the case of B3, the “CTa receptor human EC50” value was determined as 0.216 nM.

Regarding B4, the “CTa receptor human EC50” value came to 0.0855 nM.

Consider B5, for which the “CTa receptor human EC50” value is 0.21 nM.

A further assay addresses T3, rat amylin 3(a) receptor (rat …). In words: cell-based or functional assay.
In the case of B1, the “Amylin receptor rat EC50” value came to 0.052 nM.

On to B2, for which the “Amylin receptor rat EC50” value was 0.121 nM.

B3: the “Amylin receptor rat EC50” value amounted to 0.504 nM.

On to B4, for which the “Amylin receptor rat EC50” value is 0.224 nM.

As for B5, the “Amylin receptor rat EC50” value was determined as 0.305 nM.

Another assay has as its target T4, rat calcitonin (a) receptor. In words: cell-based or functional assay.
For the molecule B1, the “CTa receptor rat EC50” value amounted to 0.167 nM.

Consider B2, for which the “CTa receptor rat EC50” value was found to be 0.109 nM.

With B3, the “CTa receptor rat EC50” value was found to be 2.06 nM.

B4: the “CTa receptor rat EC50” value amounted to 1.04 nM.

As to B5, the “CTa receptor rat EC50” value came out at 0.656 nM.
